Results on 125 sequences are retold here after the supplement of paper PMC9112550, “Optimization of the antimicrobial peptide Bac7 by deep mutational scanning” (BMC Biology, 2022).
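Note: peptides expressed intracellularly from a pBAD plasmid library in pooled LB shake-flask culture, induced with 0.3% L-arabinose, DNA abundance read by NGS, three biological replicates, DESeq2 with apeglm shrinkage.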

This series relates to Escherichia coli TOP10. Put plainly: shrunken log2 fold change of peptide-encoding DNA abundance (4.5 h post-induction vs induction); higher = less antimicrobial activity (less host growth inhibition). To be noted: time post-induction: 4.5 h; library: site-saturation at positions 5, 18, 19, 20.
For RRIRARPPRLPRPRPRPHHRPRP, the “shrunken log2 fold change” value was found to be 0.00443.
Turning to RRIRHRPPRLPRPRPRPPINPRP, the “shrunken log2 fold change” value was -0.294.
The value for RRIRTRPPRLPRPRPRPWEDPRP was 0.0242.
The value for RRIRFRPPRLPRPRPRPAEHPRP was 0.26; that for RRIRGRPPRLPRPRPRPQSNPRP was 0.518; that for RRIRYRPPRLPRPRPRPNRHPRP was -0.614.
Take RRIRSRPPRLPRPRPRPKCYPRP: the “shrunken log2 fold change” value is -0.16.
The value for RRIRVRPPRLPRPRPRPQHTPRP was -0.0855.
The value for RRIRKRPPRLPRPRPRPVMNPRP was -0.0155.
RRIRYRPPRLPRPRPRPEIRPRP: the “shrunken log2 fold change” value was -0.0132.
The value for RRIRFRPPRLPRPRPRPTDWPRP was 0.335.
The value for RRIRWRPPRLPRPRPRPARNPRP was 0.256.
RRIRCRPPRLPRPRPRPQHNPRP: the “shrunken log2 fold change” value was -0.771.
The value for RRIRHRPPRLPRPRPRPAIPPRP was -0.112.
Take RRIRERPPRLPRPRPRPINTPRP: the “shrunken log2 fold change” value was -0.351.
The value for RRIRRRPPRLPRPRPRPITHPRP was -0.287.
The value for RRIRDRPPRLPRPRPRPSMRPRP was 0.334; that for RRIRFRPPRLPRPRPRPRYLPRP was -0.0779.
The value for RRIRTRPPRLPRPRPRPIAQPRP was -0.0464.
In the case of RRIRRRPPRLPRPRPRPLCTPRP, the “shrunken log2 fold change” value was 0.354.
The value for RRIRLRPPRLPRPRPRPFEVPRP was 0.0377.
As to RRIRSRPPRLPRPRPRPRNQPRP, the “shrunken log2 fold change” value amounted to 0.205.
The value for RRIRHRPPRLPRPRPRPQQIPRP was -0.0193; that for RRIRSRPPRLPRPRPRPRKIPRP was 0.12; that for RRIRMRPPRLPRPRPRPVHIPRP was 0.00544.
The value for RRIRRRPPRLPRPRPRPSEPPRP was 0.115; that for RRIRGRPPRLPRPRPRPDRMPRP was -0.107; that for RRIRCRPPRLPRPRPRPLPMPRP was 0.074.
RRIRCRPPRLPRPRPRPHKFPRP: the “shrunken log2 fold change” value is -0.742.
As to RRIRLRPPRLPRPRPRPERYPRP, the “shrunken log2 fold change” value is -0.0429.
Turning to RRIRHRPPRLPRPRPRPECSPRP, the “shrunken log2 fold change” value is -0.0101.
Turning to RRIRWRPPRLPRPRPRPQCCPRP, the “shrunken log2 fold change” value was -0.0128.
The value for RRIRARPPRLPRPRPRPFSAPRP was -0.0294; that for RRIRDRPPRLPRPRPRPAARPRP was 0.518; that for RRIRFRPPRLPRPRPRPPICPRP was 0.172.
Turning to RRIRFRPPRLPRPRPRPESFPRP, the “shrunken log2 fold change” value was determined as 0.0272.
Consider RRIRNRPPRLPRPRPRPPNPPRP, for which the “shrunken log2 fold change” value amounted to 0.411.
The value for RRIRGRPPRLPRPRPRPQIGPRP was 0.345.
The value for RRIRQRPPRLPRPRPRPSLPPRP was 0.289; that for RRIRQRPPRLPRPRPRPCGLPRP was 0.131; that for RRIRSRPPRLPRPRPRPICHPRP was -0.179.
The value for RRIRARPPRLPRPRPRPLRCPRP was 0.242; that for RRIRYRPPRLPRPRPRPNHDPRP was -0.433.
Consider RRIRGRPPRLPRPRPRPAEDPRP, for which the “shrunken log2 fold change” value was 0.0402.
The value for RRIRTRPPRLPRPRPRPEYNPRP was -0.395.
The value for RRIRYRPPRLPRPRPRPKAKPRP was 0.0915; that for RRIRPRPPRLPRPRPRPWENPRP was -0.0456.
As for RRIRQRPPRLPRPRPRPTVCPRP, the “shrunken log2 fold change” value came out at 0.0669.
The value for RRIRTRPPRLPRPRPRPYKIPRP was -0.15.
For RRIRCRPPRLPRPRPRPGQVPRP, the “shrunken log2 fold change” value came out at 0.0846.
As for RRIRDRPPRLPRPRPRPVRHPRP, the “shrunken log2 fold change” value was found to be 0.646.
The value for RRIRYRPPRLPRPRPRPFTAPRP was -0.311; that for RRIRRRPPRLPRPRPRPHREPRP was -0.0451; that for RRIRERPPRLPRPRPRPYVRPRP was -0.00133.
With RRIRFRPPRLPRPRPRPMDCPRP, the “shrunken log2 fold change” value worked out at 0.00893.
The value for RRIRARPPRLPRPRPRPFDEPRP was 0.194.
Consider RRIRCRPPRLPRPRPRPETDPRP, for which the “shrunken log2 fold change” value is -0.00874.
The value for RRIRWRPPRLPRPRPRPTHLPRP was 0.0424; that for RRIRFRPPRLPRPRPRPLKQPRP was 0.053.
As for RRIRLRPPRLPRPRPRPTNSPRP, the “shrunken log2 fold change” value was -0.355.
For RRIRPRPPRLPRPRPRPDYHPRP, the “shrunken log2 fold change” value was -0.815.
For the sequence RRIRARPPRLPRPRPRPNWDPRP, the “shrunken log2 fold change” value came to 0.0564.
The value for RRIRKRPPRLPRPRPRPWNGPRP was -0.0782.
The value for RRIRYRPPRLPRPRPRPYTWPRP was -0.571.
The value for RRIRMRPPRLPRPRPRPTGRPRP was 1.24; that for RRIRWRPPRLPRPRPRPNKTPRP was 0.0629; that for RRIRLRPPRLPRPRPRPRKWPRP was 0.184.
Consider RRIRRRPPRLPRPRPRPYGSPRP, for which the “shrunken log2 fold change” value was -0.00192.
The value for RRIRRRPPRLPRPRPRPLCAPRP was 0.646.
The value for RRIRIRPPRLPRPRPRPFHRPRP was -0.152; that for RRIRGRPPRLPRPRPRPHDEPRP was 0.136; that for RRIRTRPPRLPRPRPRPPFCPRP was 0.188.
For RRIRERPPRLPRPRPRPMLYPRP, the “shrunken log2 fold change” value was -0.222.
The value for RRIRPRPPRLPRPRPRPEFYPRP was -0.173.
The value for RRIRTRPPRLPRPRPRPVQCPRP was 0.00249; that for RRIRSRPPRLPRPRPRPGLCPRP was 0.238.
The value for RRIRPRPPRLPRPRPRPSKGPRP was 0.0318.
As for RRIRYRPPRLPRPRPRPFYGPRP, the “shrunken log2 fold change” value amounted to 0.0392.
The value for RRIRERPPRLPRPRPRPYKQPRP was -0.049; that for RRIRERPPRLPRPRPRPKWHPRP was -0.136.
The value for RRIRWRPPRLPRPRPRPWDFPRP was -0.2.
For RRIRPRPPRLPRPRPRPTFSPRP, the “shrunken log2 fold change” value was -0.182.
The value for RRIRIRPPRLPRPRPRPCWVPRP was -0.451; that for RRIRIRPPRLPRPRPRPGKVPRP was -0.621.
The value for RRIRKRPPRLPRPRPRPFFTPRP was 0.19; that for RRIRWRPPRLPRPRPRPPIEPRP was 0.702.
The value for RRIRARPPRLPRPRPRPGCMPRP was 0.727; that for RRIRLRPPRLPRPRPRPKITPRP was -0.203.
For the sequence RRIRLRPPRLPRPRPRPKPLPRP, the “shrunken log2 fold change” value is 0.144.
The value for RRIRTRPPRLPRPRPRPHRAPRP was 0.0171; that for RRIRIRPPRLPRPRPRPFSNPRP was -0.28; that for RRIRKRPPRLPRPRPRPQVLPRP was -0.165.
With RRIRFRPPRLPRPRPRPHMTPRP, the “shrunken log2 fold change” value was -0.186.
The value for RRIRSRPPRLPRPRPRPRHSPRP was -0.356.
For the sequence RRIRKRPPRLPRPRPRPVRSPRP, the “shrunken log2 fold change” value amounted to 2.24.
The value for RRIRCRPPRLPRPRPRPNQLPRP was -0.345; that for RRIRDRPPRLPRPRPRPECSPRP was 0.0314.
For the sequence RRIRCRPPRLPRPRPRPCCTPRP, the “shrunken log2 fold change” value was -0.238.
The value for RRIRLRPPRLPRPRPRPMKTPRP was -0.034; that for RRIRPRPPRLPRPRPRPDVEPRP was -0.0392; that for RRIRLRPPRLPRPRPRPFWGPRP was -0.507.
RRIRFRPPRLPRPRPRPHVFPRP: the “shrunken log2 fold change” value is -0.136.
The value for RRIRGRPPRLPRPRPRPRRIPRP was 0.451; that for RRIRGRPPRLPRPRPRPTIDPRP was 0.214; that for RRIRHRPPRLPRPRPRPFDAPRP was 0.00493.
As to RRIRARPPRLPRPRPRPNKNPRP, the “shrunken log2 fold change” value amounted to 0.0222.
On to RRIRQRPPRLPRPRPRPGWKPRP, for which the “shrunken log2 fold change” value worked out at 0.115.
The value for RRIRVRPPRLPRPRPRPANLPRP was -0.163; that for RRIRPRPPRLPRPRPRPFCEPRP was 0.0972; that for RRIRHRPPRLPRPRPRPEKQPRP was -0.0365.
The value for RRIRCRPPRLPRPRPRPTPQPRP was 0.794.
The value for RRIRCRPPRLPRPRPRPMNVPRP was -0.00117.
As to RRIRHRPPRLPRPRPRPPACPRP, the “shrunken log2 fold change” value is 0.153.
The value for RRIRGRPPRLPRPRPRPDACPRP was 1.23; that for RRIRIRPPRLPRPRPRPFHSPRP was -0.16.
The value for RRIRSRPPRLPRPRPRPWNLPRP was -1.05.
Regarding RRIRARPPRLPRPRPRPTVHPRP, the “shrunken log2 fold change” value came out at 2.45.
The value for RRIRNRPPRLPRPRPRPRHQPRP was -0.038; that for RRIRARPPRLPRPRPRPCMQPRP was -0.125; that for RRIRVRPPRLPRPRPRPFWYPRP was -0.308.
The value for RRIRVRPPRLPRPRPRPRKCPRP was -0.0338; that for RRIRGRPPRLPRPRPRPSGVPRP was 0.633.
The value for RRIRGRPPRLPRPRPRPQYCPRP was 0.192; that for RRIRHRPPRLPRPRPRPQSKPRP was -0.342; that for RRIRRRPPRLPRPRPRPHNMPRP was -0.697.
